US20170088602A1 (Bristol-Myers Squibb, published 2017)

T1: human myostatin (mature, recombinant; R&D Systems) (human, UniProt O14793 267-375)
T1 sequence: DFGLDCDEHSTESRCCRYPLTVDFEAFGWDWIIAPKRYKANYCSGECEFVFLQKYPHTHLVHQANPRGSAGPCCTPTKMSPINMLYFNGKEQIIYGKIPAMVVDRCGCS

T2: human BMP-11 (GDF-11; R&D Systems) (human, UniProt O95390 299-407)
T2 sequence (looked up): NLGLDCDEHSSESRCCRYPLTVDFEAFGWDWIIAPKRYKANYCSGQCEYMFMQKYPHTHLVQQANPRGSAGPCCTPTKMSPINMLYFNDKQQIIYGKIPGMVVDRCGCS

T3: human Activin A (R&D Systems) (human, UniProt P08476 311-426)
T3 sequence (looked up): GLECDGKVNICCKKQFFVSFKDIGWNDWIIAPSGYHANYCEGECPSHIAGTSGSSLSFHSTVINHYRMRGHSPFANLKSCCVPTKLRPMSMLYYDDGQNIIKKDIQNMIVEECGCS


How the values were obtained:
[1] = target: T1, human myostatin (mature, recombinant; …); experiment: cell-based or functional assay
[2] = target: T1, human myostatin (mature, recombinant; …); experiment: competitive HTRF (1889E01/myostatin/ActRIIb-Fc sandwich)
Excerpt: An HTRF assay was used to measure the binding affinities of anti-myostatin Adnectins to myostatin. […] The Eu-W 1024 labeled Streptavidin is used to bind biotinylated 1889E01. […] In the presence of a competitive Adnectin, the HTRF signal decreases.

[3] = target: T2, human BMP-11 (GDF-11; R&D Systems); experiment: cell-based or functional assay
[4] = target: T1, human myostatin (mature, recombinant; …); experiment: cell-based or functional assay; remark: listed apart in the source
[5] = target: T3, human Activin A (R&D Systems); experiment: cell-based or functional assay
[6] = target: T2, human BMP-11 (GDF-11; R&D Systems); experiment: SPR format A, 25C
Excerpt: (§1) Anti-human Fc antibody (Biacore/GE) was immobilized on a Biacore CM5 chip via NHS/EDC coupling according to the manufacturer's instructions. […] A concentration range of anti-myostatin Adnectin was applied across all flow cells in HBSP running buffer. Regeneration of the chip surface between cycles was accomplished with two 30 second pulses of 3M MgCl₂. Kinetic traces of reference-subtracted sensorgrams were fit to a 1:1 binding model using Biaevaluation software.

[7] = target: T1, human myostatin (mature, recombinant; …); experiment: SPR format A, 25C
Excerpt: as §1

[8] = target: T1, human myostatin (mature, recombinant; …); experiment: cell-based or functional assay; remark: listed apart in the source
[9] = target: T1, human myostatin (mature, recombinant; …); experiment: competitive HTRF, alanine scan

pSmad2 IC50, 4-point [1] | IC50 [2] [nM] | ARE-luciferase IC50 [3] [nM] | ARE-luciferase IC50 [4] [nM] | ARE-luciferase IC50 [5] [nM] | pSmad2 % inhibition at 10 nM [1] [%] | pSmad2 IC50, 12-point [1] [nM] | Kd [6] [nM] | Kd [7] [nM] | Myostatin ARE-luc IC50 [8] [nM] | IC50 [9] [nM] | Binder
60 pM | 0.14 | 2 | 0.07 | > 1000 | – | – | – | – | – | – | 3115_E06 (designed binder) MGVSDVPRDLEVVAATPTSLLISWDAPAGLARYYRITYGETGGNSPVQEFTVVGRGNTATISGLKPGVDYTITVYAVTIFRDGPVTWDPISINYRTEIDKPSQHHHHHH
– | 0.15 | 2 | 0.08 | > 2000 | 51 | – | – | – | – | – | 3006_A10 (designed binder) MGVSDVPRDLEVVAATPTSLLISWDAPGGLARYYRITYGETGGNSPVQEFTVIGRGSTATISGLKPGVDYTITVYAVTIDRDGVNHFAPISINYRTEIDKPSQHHHHHH
60 pM | 0.13 | 1.6 | 0.1 | > 1000 | – | – | – | – | – | – | 3116_H06 (designed binder) MGVSDVPRDLEVVAATPTSLLISWDAPAGLARYYRITYGETGGNSPVQEFTVVGRGNTATISGLKPGVDYTITVYAVTIFRDGVVNYGPISINYRTEIDKPSQHHHHHH
60 pM | 0.2 | 3.6 | 0.16 | > 1000 | – | – | – | – | – | – | 3115_D04 (designed binder) MGVSDVPRDLEVVAATPTSLLISWDAPRGLARYYRITYGETGGNSPVQEFTVFGRGTTATISGLKPGVDYTITVYAVTIDRDGTRSFDPISINYRTEIDKPSQHHHHHH
60 pM | 0.11 | 0.5 | 0.04 | > 1000 | – | – | – | – | – | – | 3116_A07 (designed binder) MGVSDVPRDLEVVAATPTSLLISWDAPKGLARYYRITYGETGGNSPVQEFTVVGRGNTATISGLKPGVDYTITVYAVTIFRDGPVTWDPISINYRTEIDKPSQHHHHHH
– | – | 1.6 | 0.06 | 1000 | – | 0.13 | 0.45 | 0.51 | – | – | 2522_C09 (designed binder) MGVSDVPRDLEVVAATPTSLLISWEVPRGLARYYRITYGETGGNSPVQEFTVLGRGSTATISGLKPGVDYTITVYAVTVYRDGPLLLAPISINYRTEIDKPSQHHHHHH
– | – | – | – | – | – | – | – | – | 1.8 | 0.8 | 3116_A06 D82A (designed binder) MGVSDVPRDLEVVAATPTSLLISWSLPHQGKANYYRITYGETGGNSPVQEFTVPGRGVTATISGLKPGVDYTITVYAVTVTATGYLKYKPISINYRTEIDKPSQHHHHHH
– | – | – | – | – | – | – | – | – | > 100 | > 100 | 3116_A06 G55A (designed binder) MGVSDVPRDLEVVAATPTSLLISWSLPHQGKANYYRITYGETGGNSPVQEFTVPARGVTATISGLKPGVDYTITVYAVTVTDTGYLKYKPISINYRTEIDKPSQHHHHHH
– | – | – | – | – | – | – | – | – | 2.2 | 0.6 | 3116_A06 K31A (designed binder) MGVSDVPRDLEVVAATPTSLLISWSLPHQGAANYYRITYGETGGNSPVQEFTVPGRGVTATISGLKPGVDYTITVYAVTVTDTGYLKYKPISINYRTEIDKPSQHHHHHH
0.78 nM | 0.26 | 48 | 0.7 | > 1000 | – | – | – | – | – | – | 3146_A08 (designed binder) MGVSDVPRDLEVVAATPTSLLISWSLPNPGNAHYYRITYGETGGNSPVQEFTVPGRGVTATISGLKPGVDYTITVYAVTVTDTGFITYKPISINYRTEIDKPSQHHHHHH
– | – | – | – | – | – | – | – | – | > 100 | > 100 | 3116_A06 G57A (designed binder) MGVSDVPRDLEVVAATPTSLLISWSLPHQGKANYYRITYGETGGNSPVQEFTVPGRAVTATISGLKPGVDYTITVYAVTVTDTGYLKYKPISINYRTEIDKPSQHHHHHH
– | – | – | – | – | – | – | – | – | 3.6 | 2 | 3116_A06 G84A (designed binder) MGVSDVPRDLEVVAATPTSLLISWSLPHQGKANYYRITYGETGGNSPVQEFTVPGRGVTATISGLKPGVDYTITVYAVTVTDTAYLKYKPISINYRTEIDKPSQHHHHHH
– | 0.12 | 0.5 | 0.06 | 644 | – | – | 0.065 | 0.057 | – | – | ATI-1267 [N-ethylmaleimide] (designed binder, N-ethylmaleimide on the Cys of the EGSGC tail, cysteine mutant of 2525_D02) MGVSDVPRDLEVVAATPTSLLISWTLPHAGRAHYYRITYGETGGNSPVQEFTVPGRGVTATISGLKPGVDYTITVYAVTVTTTSVILYKPISINYRTEGSGCHHHHHH
– | – | 0.55 | 0.06 | 84 | – | 0.11 | 0.81 | 0.64 | – | – | 2524_D09 (designed binder) MGVSDVPRDLEVVAATPTSLLISWYLPYPAHMNYYRITYGETGGNSPVQEFTVPGRGLTATISGLKPGVDYTITVYAVTLTKSQILHHRPISINYRTEIDKPSQHHHHHH
– | – | 7.3 | 0.09 | > 1000 | – | 0.13 | 0.87 | 0.88 | – | – | 2524_H05 (designed binder) MGVSDVPRDLEVVAATPTSLLISWSLPYSGLANYYRITYGETGGNSPVQEFTVPGRGVTATISGLKPGVDYTITVYAVTLTHSNIIRYVPISINYRTEIDKPSQHHHHHH
– | – | 3.2 | 0.11 | 73 | – | 0.14 | 1.58 | 1.29 | – | – | 2525_B01 (designed binder) MGVSDVPRDLEVVAATPTSLLISWTLPNFGLINYYRITYGETGGNSPVQEFTVPGRGVTATISGLKPGVDYTITVYAVTITKSTIIIYKPISINYRTEIDKPSQHHHHHH
– | – | 1.1 | 0.05 | 345 | – | 0.36 | 0.3 | 0.24 | – | – | 2525_D02 (designed binder) MGVSDVPRDLEVVAATPTSLLISWTLPHAGRAHYYRITYGETGGNSPVQEFTVPGRGVTATISGLKPGVDYTITVYAVTVTTTSVILYKPISINYRTEIDKPSQHHHHHH
– | – | 3.4 | 0.13 | > 1000 | – | 0.27 | 0.97 | 0.79 | – | – | 2525_F07 (designed binder) MGVSDVPRDLEVVAATPTSLLISWSLPYAAHMNYYRITYGETGGNSPVQEFTVPGRGVTATISGLKPGVDYTITVYAVTLTRSQVIHYMPISINYRTEIDKPSQHHHHHH
– | – | 5.5 | 0.02 | > 400 | – | – | 2.25 | 0.99 | – | – | 2987_H07 (designed binder) MGVSDVPRDLEVVAATPTSLLISWTLPHAGRAHYYRITYGETGGNSPVQEFTVPGRGVTATISGLKPGVDYTITVYAVTVTTTKVIHYKPISINYRTEIDKPSQHHHHHH
– | 0.19 | 0.14 | 0.03 | 19 | – | – | 0.15 | 0.15 | – | – | ATI-1275 [N-ethylmaleimide] (designed binder, N-ethylmaleimide on the Cys of the EGSGC tail, cysteine mutant of 2524_D09) MGVSDVPRDLEVVAATPTSLLISWYLPYPAHMNYYRITYGETGGNSPVQEFTVPGRGLTATISGLKPGVDYTITVYAVTLTKSQILHHRPISINYRTEGSGCHHHHHH
– | 0.38 | 1.18 | 0.14 | 2000 | – | – | 0.14 | 0.16 | – | – | ATI-1277 [N-ethylmaleimide] (designed binder, N-ethylmaleimide on the Cys of the EGSGC tail, cysteine mutant of 2525_D05) MGVSDVPRDLEVVAATPTSLLISWSLPYAGHLNYYRITYGETGGNSPVQEFTVPGRGVTATISGLKPGVDYTITVYAVTLTKSQLIHYMPISINYRTEGSGCHHHHHH
